Measurements from patent US20190144503A1 (REGENTS OF THE UNIVERSITY OF MINNESOTA, published 2019).
Like-named read-outs stand apart in the source and are kept apart here.

Legend:
[1] = target: T1, recombinant His-tagged human carbonic anhydrase 9 (human, UniProt Q16790 38-414); test: titration of the purified clone, Relative Binding to CA9 against concentration (x axis printed 'AAZ Concentration (nM)'); assay format not described
[2] = target: T1, recombinant His-tagged human carbonic …; test: as above; remark: listed apart in the source
[3] = target: T1, recombinant His-tagged human carbonic …; test: binding of the purified clone to CA9 (FIG. 14B); method not stated

B1: Fn-AAZ clone 0.3.10 (fibronectin type III domain of SEQ ID NO: 3 conjugated to acetazolamide) (designed binder)
chain: MASSSDSPRNLEVTNATPNSLTISWDSYLDCAYYYRITYGETGGNSPSQEFTVPGYTNSVTISGLKPGQDYTITVYAVASSNDVSNPISINYRTEIDKPSQGS
modifications: acetazolamide (AAZ) conjugated through a maleimide-PEG linker to the single cysteine; PEG length not stated for this clone
notes: Expressed and purified clone, conjugated with maleimide-PEG-AAZ; also called first Fn-AAZ clone; first Fn-AAZ conjugate
- Kd [1]: 60 nM

B2: Clone 0.3.10 fibronectin type III domain (SEQ ID NO: 3) not conjugated to AAZ (designed binder)
chain: B1 chain
- Kd [1]: 600 nM

B3: Fn-AAZ clone 0.3.9 (fibronectin type III domain of SEQ ID NO: 4 conjugated to acetazolamide) (designed binder)
chain: MASSSDSPRNLEVTNATPNSLTISWDDSYCVIYYRITYGETGGNSPSQEFTVPGYTNSVTISGLKPGQDYTITVYAVTDYSKLDPSNPISINYRTEIDKPSQGS
modifications: acetazolamide (AAZ) conjugated through a maleimide-PEG linker to the single cysteine; PEG length not stated for this clone
notes: Expressed and purified clone, conjugated with maleimide-PEG-AAZ; also called second Fn-AAZ clone; second Fn-AAZ conjugate
- Kd [2]: ~30 nM
- fold higher affinity than the Fn not conjugated to AAZ [3]: ~6 fold

B4: Clone 0.3.9 fibronectin type III domain (SEQ ID NO: 4) not conjugated to AAZ (designed binder)
chain: B3 chain
- Kd [2]: 170 nM
